# Changes are numbered by the printed parent chain.
# T1: huCD148 on human endothelial cells (planar migration assay) (human, UniProt Q12913 36-1337)
# T1 sequence (looked up): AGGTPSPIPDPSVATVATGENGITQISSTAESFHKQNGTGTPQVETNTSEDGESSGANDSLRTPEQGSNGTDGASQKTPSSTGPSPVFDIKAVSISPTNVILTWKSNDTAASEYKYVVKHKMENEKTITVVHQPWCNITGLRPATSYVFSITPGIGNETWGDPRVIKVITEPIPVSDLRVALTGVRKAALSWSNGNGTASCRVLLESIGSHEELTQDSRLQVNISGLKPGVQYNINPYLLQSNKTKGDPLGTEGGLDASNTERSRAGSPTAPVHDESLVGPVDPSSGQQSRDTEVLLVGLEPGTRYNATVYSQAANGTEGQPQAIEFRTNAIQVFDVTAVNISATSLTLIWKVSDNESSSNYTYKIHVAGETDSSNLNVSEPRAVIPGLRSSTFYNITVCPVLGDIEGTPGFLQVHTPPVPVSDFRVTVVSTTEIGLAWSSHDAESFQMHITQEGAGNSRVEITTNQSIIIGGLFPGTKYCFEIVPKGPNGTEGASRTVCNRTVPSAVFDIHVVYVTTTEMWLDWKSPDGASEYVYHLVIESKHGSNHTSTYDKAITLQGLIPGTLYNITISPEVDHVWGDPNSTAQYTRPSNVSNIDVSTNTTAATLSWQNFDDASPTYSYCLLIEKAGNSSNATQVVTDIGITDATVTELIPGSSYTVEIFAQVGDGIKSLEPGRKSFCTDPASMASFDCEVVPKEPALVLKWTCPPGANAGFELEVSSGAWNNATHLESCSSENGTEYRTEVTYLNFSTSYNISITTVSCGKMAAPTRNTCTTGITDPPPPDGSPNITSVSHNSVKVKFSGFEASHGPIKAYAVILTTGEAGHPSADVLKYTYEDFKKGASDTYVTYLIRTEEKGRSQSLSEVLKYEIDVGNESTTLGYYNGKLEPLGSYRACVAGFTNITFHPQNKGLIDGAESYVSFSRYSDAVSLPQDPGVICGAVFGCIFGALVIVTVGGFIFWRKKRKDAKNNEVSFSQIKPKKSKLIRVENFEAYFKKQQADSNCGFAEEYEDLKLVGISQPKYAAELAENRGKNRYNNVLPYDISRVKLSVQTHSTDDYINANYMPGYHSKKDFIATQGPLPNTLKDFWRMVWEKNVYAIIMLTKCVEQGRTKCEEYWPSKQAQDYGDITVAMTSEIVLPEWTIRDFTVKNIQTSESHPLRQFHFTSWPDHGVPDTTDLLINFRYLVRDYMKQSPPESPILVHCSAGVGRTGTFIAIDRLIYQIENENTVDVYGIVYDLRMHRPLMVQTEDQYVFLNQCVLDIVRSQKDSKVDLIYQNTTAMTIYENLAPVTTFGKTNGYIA
# B1: Antibody No. 4 (Ab-4) (antibody, V domains shown)
# VH: QVQLVQSGAEVKKPGASVKVSCKASGYTFTSYYMHWVRQAPGQGLEWMGIINPSDGSTRYVEKFQGRVTMTRDTSTSTVYMELSSLRSEDTAVYFCARGMGPGPHYHFYMDVWGKGTMVTVSS
# VL: SSELTQDPAVSVALGQTVRITCQGDSLRSYYTNWFQQKPGQAPLLVVYAKNKRPSGIPDRFSGSSSGNTASLTITGAQAEDEADYYCHSRDSGGNHVLFGGGTKLTVL
# B2: Antibody No. 5 (Ab-5) (antibody, V domains shown)
# VH: QVQLVQSGAEVKKPGASVKVSCKASGYTFTGQYIHWVRQAPGQGLEWMGWISAYNGYTDYAQKVQGRVTMTTDTSTSTAYMELRSLRSDDTAVYYCAREVWPVAAADTFSVFDIWGRGTLVTVSS
# VL: B1 VL with T32A, N33S, F35Y, L44V, V47I, A49G, K52N, H88N, G93S, L98V
# B3: Antibody No. 1 (Ab-1) (antibody, V domains shown)
# VH: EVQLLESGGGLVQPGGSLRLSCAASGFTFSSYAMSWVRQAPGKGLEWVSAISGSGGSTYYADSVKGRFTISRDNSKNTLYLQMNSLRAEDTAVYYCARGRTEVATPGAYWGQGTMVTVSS
# VL: QAVLTQPSSVSGAPGQRVTISCTGSSSNIGAGYDVHWYQQLPGTAPKLLIYGNSNRPSGVPDRFSGSKSGTSASLAVTGLQAEDEADYYCQSYDSSLSDVVFGGGTKLTVL
# B4: Antibody No. 2 (Ab-2) (antibody, V domains shown)
# VH: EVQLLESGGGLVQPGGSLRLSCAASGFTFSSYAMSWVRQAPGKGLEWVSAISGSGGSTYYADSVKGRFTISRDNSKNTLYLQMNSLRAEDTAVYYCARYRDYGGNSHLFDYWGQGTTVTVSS
# VL: EIVMTQSPSSLPASVGDRVTITCRASQNIKTYLHWYQQKPGKAPNLLIYAASNLQIGVPSRFSGSGSGTDFTLTISSLQPEDFATYFCQQSYITPPTFGQGTRLEIK
# B5: Antibody No. 8 (Ab-8) (antibody, V domains shown)
# VH: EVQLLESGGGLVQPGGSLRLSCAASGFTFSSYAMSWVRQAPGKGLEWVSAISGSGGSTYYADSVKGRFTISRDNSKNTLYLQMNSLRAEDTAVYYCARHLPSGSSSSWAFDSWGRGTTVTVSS
# VL: SYVLTQPPSASGTPGQRVTISCSGSSSNIGSNYVYWYQQLPGTAPKLLIYRNNQRPSGVPDRFSGSKSGTSASLAISGLQSEDEADYYCEAWDDNVDGPVFGGGTKLTVL
# B6: Antibody No. 7 (Ab-7) (antibody, V domains shown)
# VH: EVQLVQSGAEVKKPGESLKISCKGYGYDFSRDWIAWVRQMPGKGLEWMGIIYPGDSDTRYSPSFEGQVTISADKSISTAYLQWRSLKASDTAMYYCARQRRLGWFDPWGQGTMVTVSS
# VL: RSVLTQPPSVSAAPGQKVTISCSGSTSNIGNNYVSWYQQHPGKAPKLMIYDVSKRPSGVPDRFSGSKSGNSASLDISGLQSEDEADYYCAAWDDSLSEFLFGTGTKLTVL
# B7: Antibody No. 6 (Ab-6) (antibody, V domains shown)
# VH: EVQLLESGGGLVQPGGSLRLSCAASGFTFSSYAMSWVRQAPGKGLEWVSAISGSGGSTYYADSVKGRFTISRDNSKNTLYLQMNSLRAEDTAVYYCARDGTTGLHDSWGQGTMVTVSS
# VL: QSVLTQPPSASGTPGQRVTISCSGSSSNVGSNFVYWYQQFPGTAPKLLIYRNNQRPSGVPDRFSGSKSGTSASLAISGLRSEDEADYYCAAWDDTLNGHYVFGGGTKLTVL
# B8: Antibody No. 3 (Ab-3) (antibody, V domains shown)
# VH: GVQLVQSGAEVKKPGASVKVSCKASGYTFTSYYMHWVRQAPGQGLEWMGIINPSGGSTSYAQKFQGRVTMTRDTSTSTVYMELSSLRSEDTAVYYCARRVISGAFDIWGQGTMVTVSS
# VL: DIQMTQSPSTLSASIGDRVTITCRASEGIYHWLAWYQQKPGKAPKLLIYKASSLASGAPSRFSGSGSGTDFTLTISSLQPDDFATYYCQQYSNYPLTFGGGTKLEIK
# Target: T1, huCD148 on human endothelial cells …
# Experiment: cell-based or functional assay
row,inhibiting human endothelial cell migration and/or inhibited angiogenesis in the corneal angiogenesis assay [%],Binder
1,≥ 20,B1
2,≥ 20,B2
3,≥ 20,B3
4,≥ 20,B4
5,≥ 20,B5
6,≥ 20,B6
7,≥ 20,B7
8,≥ 20,B8

# From patent US20090263383A1 (Amgen, published 2009)
